From patent US20250011363A1, “OPTIMIZED SHORTENED PEPTIDE THAT BINDS TO ACETYLCHOLINE RECEPTOR, AND USE THEREOF” (SKINMED CO., LTD., priority 2021, published 2025)
Values belong to the binder of their own block, whether it stands above or below them.

What was measured:
acetylcholine receptor [1] = experiment: SPR, peptide at 10 uM on immobilised AchR
acetylcholine receptor [2] = experiment: SPR, AchR immobilized on chip, peptide at 10 uM

Binding affinity (RU) (acetylcholine receptor [1]): 153 RU
B1: 6mer-1-6 (peptide)
peptide: RKSRCK

Binding affinity (acetylcholine receptor [2]): 136 RU
B2: 6mer-2-64 (peptide)
peptide: KSVSKK

Binding affinity (acetylcholine receptor [2]): 123 RU
B3: 6mer-2-13 (peptide)
peptide: RQYTRK

Binding affinity (acetylcholine receptor [2]): 124 RU
B4: 6mer-2-5 (peptide)
peptide: RWVSKR

Binding affinity (acetylcholine receptor [2]): 154 RU
B5: 6mer-2-49 (peptide)
peptide: RLRCRK

Binding affinity (acetylcholine receptor [2]): 128 RU
B6: 6mer-2-27 (peptide)
peptide: KVIRRK

Binding affinity (acetylcholine receptor [2]): 153 RU
B7: 6mer-2-46 (peptide)
peptide: KLYLKR

Binding affinity (acetylcholine receptor [2]): 125 RU
B8: 6mer-2-4 (peptide)
peptide: RSYYRR

Binding affinity (acetylcholine receptor [2]): 122 RU
B9: 6mer-2-58 (peptide)
peptide: KRLQRK

Binding affinity (acetylcholine receptor [2]): 148 RU
B10: 6mer-2-37 (peptide)
peptide: KLLYRK

Binding affinity (acetylcholine receptor [2]): 125 RU
B11: 6mer-2-53 (peptide)
peptide: KSLSRR

Binding affinity (acetylcholine receptor [2]): 142 RU
B12: 6mer-2-29 (peptide)
peptide: RSQRKR

Binding affinity (acetylcholine receptor [2]): 121 RU
B13: 6mer-2-31 (peptide)
peptide: KSYQRK

Binding affinity (acetylcholine receptor [2]): 124 RU
B14: 6mer-2-34 (peptide)
peptide: KVFRRK

Binding affinity (acetylcholine receptor [2]): 126 RU
B15: 6mer-2-42 (peptide)
peptide: KLLSKR

Binding affinity (acetylcholine receptor [2]): 125 RU
B16: 6mer-2-50 (peptide)
peptide: RSQSKR

Binding affinity (RU) (acetylcholine receptor [1]): 142 RU
B17: 6mer-1-2 (peptide)
peptide: RKQILR

Binding affinity (acetylcholine receptor [2]): 123 RU
B18: 6mer-2-66 (peptide)
peptide: RVIRRR

Binding affinity (acetylcholine receptor [2]): 146 RU
B19: 6mer-2-43 (peptide)
peptide: RVITKR

Binding affinity (acetylcholine receptor [2]): 123 RU
B20: 6mer-2-59 (peptide)
peptide: RVLSRK

Binding affinity (acetylcholine receptor [2]): 148 RU
B21: 6mer-2-61 (peptide)
peptide: RGFQRK

Binding affinity (acetylcholine receptor [2]): 142 RU
B22: 6mer-2-33 (peptide)
peptide: RQFRKK

Binding affinity (acetylcholine receptor [2]): 124 RU
B23: 6mer-2-67 (peptide)
peptide: KLFCKK

Binding affinity (acetylcholine receptor [2]): 142 RU
B24: 6mer-2-41 (peptide)
peptide: KQLCKR

Binding affinity (acetylcholine receptor [2]): 142 RU
B25: 6mer-2-68 (peptide)
peptide: KGRRRK

Binding affinity (acetylcholine receptor [2]): 141 RU
B26: 6mer-2-21 (peptide)
peptide: RLFTRK

Binding affinity (RU) (acetylcholine receptor [1]): 139 RU
B27: 6mer-1-4 (peptide)
peptide: RKSFYK

Binding affinity (acetylcholine receptor [2]): 30 RU
B28: 6mer-2-1200 (peptide)
peptide: RHHNRR

Binding affinity (RU) (acetylcholine receptor [1]): 154 RU
B29: 6mer-1-9 (peptide)
peptide: RKSFCK

Binding affinity (acetylcholine receptor [2]): 153 RU
B30: 6mer-2-48 (peptide)
peptide: RRFRKK

Binding affinity (acetylcholine receptor [2]): 145 RU
B31: 6mer-2-44 (peptide)
peptide: KSVRRK

Binding affinity (acetylcholine receptor [2]): 121 RU
B32: 6mer-2-16 (peptide)
peptide: KGVCRR

Binding affinity (acetylcholine receptor [2]): 147 RU
B33: 6mer-2-62 (peptide)
peptide: RLVTKR

Binding affinity (acetylcholine receptor [2]): 124 RU
B34: 6mer-2-54 (peptide)
peptide: KGRRRR

Binding affinity (RU) (acetylcholine receptor [1]): 125 RU
B35: 6mer-1-8 (peptide)
peptide: RKRRRK

Binding affinity (acetylcholine receptor [2]): 137 RU
B36: 6mer-2-39 (peptide)
peptide: RWRYRK

Binding affinity (acetylcholine receptor [2]): 142 RU
B37: 6mer-2-17 (peptide)
peptide: RWVTRR

Binding affinity (acetylcholine receptor [2]): 148 RU
B38: 6mer-2-47 (peptide)
peptide: KLQSRR

Binding affinity (acetylcholine receptor [2]): 121 RU
B39: 6mer-2-11 (peptide)
peptide: RQYQRR

Binding affinity (acetylcholine receptor [2]): 124 RU
B40: 6mer-2-18 (peptide)
peptide: RSILRR

Binding affinity (acetylcholine receptor [2]): 148 RU
B41: 6mer-2-25 (peptide)
peptide: KQVQKR

Binding affinity (acetylcholine receptor [2]): 126 RU
B42: 6mer-2-7 (peptide)
peptide: KSRCRK

Binding affinity (acetylcholine receptor [2]): 139 RU
B43: 6mer-2-32 (peptide)
peptide: RRLCRK

Binding affinity (RU) (acetylcholine receptor [1]): 135 RU
B44: 6mer-1-5 (peptide)
peptide: KRQIRK

Binding affinity (acetylcholine receptor [2]): 148 RU
B45: 6mer-2-60 (peptide)
peptide: RRLSKK

Binding affinity (acetylcholine receptor [2]): 125 RU
B46: 6mer-2-55 (peptide)
peptide: RLFYKK

Binding affinity (acetylcholine receptor [2]): 121 RU
B47: 6mer-2-26 (peptide)
peptide: RWRRKK

Binding affinity (RU) (acetylcholine receptor [1]): 139 RU
B48: 6mer-1-10 (peptide)
peptide: KRWRLK

Binding affinity (acetylcholine receptor [2]): 148 RU
B49: 6mer-2-3 (peptide)
peptide: KVYSRK

Binding affinity (acetylcholine receptor [2]): 153 RU
B50: 6mer-2-40 (peptide)
peptide: RRYRKK

Binding affinity (acetylcholine receptor [2]): 142 RU
B51: 6mer-2-28 (peptide)
peptide: KVLSRK

Binding affinity (acetylcholine receptor [2]): 137 RU
B52: 6mer-2-20 (peptide)
peptide: RVQTRR

Binding affinity (acetylcholine receptor [2]): 121 RU
B53: 6mer-2-45 (peptide)
peptide: RSLTKK

Binding affinity (acetylcholine receptor [2]): 147 RU
B54: 6mer-2-12 (peptide)
peptide: RQFQRK

Binding affinity (acetylcholine receptor [2]): 136 RU
B55: 6mer-2-38 (peptide)
peptide: RSYYKR

Binding affinity (acetylcholine receptor [2]): 148 RU
B56: 6mer-2-23 (peptide)
peptide: RWVRKK

Binding affinity (acetylcholine receptor [2]): 149 RU
B57: 6mer-2-56 (peptide)
peptide: RSQLRR

Binding affinity (acetylcholine receptor [2]): 133 RU
B58: 6mer-2-15 (peptide)
peptide: KQVRKR

Binding affinity (acetylcholine receptor [2]): 139 RU
B59: 6mer-2-51 (peptide)
peptide: KQFLKK

Binding affinity (acetylcholine receptor [2]): 124 RU
B60: 6mer-2-10 (peptide)
peptide: KVFSKK

Binding affinity (acetylcholine receptor [2]): 131 RU
B61: 6mer-2-36 (peptide)
peptide: RRLQKK

Binding affinity (acetylcholine receptor [2]): 122 RU
B62: 6mer-2-6 (peptide)
peptide: KSICRR

Binding affinity (acetylcholine receptor [2]): 135 RU
B63: 6mer-2-8 (peptide)
peptide: KSLQKK

Binding affinity (acetylcholine receptor [2]): 139 RU
B64: 6mer-2-2 (peptide)
peptide: RWYLKR

Binding affinity (RU) (acetylcholine receptor [1]): 126 RU
B65: 6mer-1-7 (peptide)
peptide: KRQYSK

Binding affinity (acetylcholine receptor [2]): 139 RU
B66: 6mer-2-9 (peptide)
peptide: KLICRK

Binding affinity (acetylcholine receptor [2]): 27 RU
B67: 6mer-2-1199 (peptide)
peptide: RCTNKR

Binding affinity (RU) (acetylcholine receptor [1]): 154 RU
B68: 6mer-1-3 (peptide)
peptide: RKRRSR

Binding affinity (acetylcholine receptor [2]): 121 RU
B69: 6mer-2-63 (peptide)
peptide: KSFRKR

Binding affinity (acetylcholine receptor [2]): 135 RU
B70: 6mer-2-19 (peptide)
peptide: RSFSKK

Binding affinity (acetylcholine receptor [2]): 139 RU
B71: 6mer-2-57 (peptide)
peptide: KQRCRR

Binding affinity (acetylcholine receptor [2]): 153 RU
B72: 6mer-2-14 (peptide)
peptide: RGRQKK

Binding affinity (acetylcholine receptor [2]): 148 RU
B73: 6mer-2-65 (peptide)
peptide: KGVCKR

Binding affinity (acetylcholine receptor [2]): 148 RU
B74: 6mer-2-35 (peptide)
peptide: RWISRK

Binding affinity (acetylcholine receptor [2]): 141 RU
B75: 6mer-2-24 (peptide)
peptide: KGIQRK

Binding affinity (acetylcholine receptor [2]): 139 RU
B76: 6mer-2-30 (peptide)
peptide: RQFYKK

Binding affinity (acetylcholine receptor [2]): 124 RU
B77: 6mer-2-22 (peptide)
peptide: RQIRKK

Binding affinity (acetylcholine receptor [2]): 136 RU
B78: 6mer-2-52 (peptide)
peptide: KRQRKK

Binding affinity (RU) (acetylcholine receptor [1]): 122 RU
B79: 6mer-1-1 (peptide)
peptide: KKVISK
